Results as given in paper doi:10.1101/2023.03.26.534243.

How the values were obtained:
Assay in all cases: BLI
FcγRIIb/c = FcγRIIb/c (UniProt P31994)
FcγRIIIa_(V176) = FcγRIIIa_(V176) (UniProt P08637)
FcγRIIa_(H167) = FcγRIIa_(H167) (UniProt P12318)
FcγRIa = FcγRIa (UniProt P12314)
FcγRIIIa_(F176) = FcγRIIIa_(F176) (UniProt P08637)

Chain of UniProt P12318 (P12318 34-217): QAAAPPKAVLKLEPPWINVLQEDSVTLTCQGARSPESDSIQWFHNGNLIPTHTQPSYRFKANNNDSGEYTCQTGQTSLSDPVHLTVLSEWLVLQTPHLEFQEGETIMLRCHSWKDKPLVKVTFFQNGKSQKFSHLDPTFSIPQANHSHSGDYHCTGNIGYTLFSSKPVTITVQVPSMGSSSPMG
Chain of UniProt P31994 (P31994 43-217): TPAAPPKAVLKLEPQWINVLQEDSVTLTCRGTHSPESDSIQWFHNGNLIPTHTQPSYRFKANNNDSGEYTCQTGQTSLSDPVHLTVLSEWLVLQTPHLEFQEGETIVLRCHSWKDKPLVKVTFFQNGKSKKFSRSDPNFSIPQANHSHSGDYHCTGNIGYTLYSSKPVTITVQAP
Chain of UniProt P12314 (P12314 16-292): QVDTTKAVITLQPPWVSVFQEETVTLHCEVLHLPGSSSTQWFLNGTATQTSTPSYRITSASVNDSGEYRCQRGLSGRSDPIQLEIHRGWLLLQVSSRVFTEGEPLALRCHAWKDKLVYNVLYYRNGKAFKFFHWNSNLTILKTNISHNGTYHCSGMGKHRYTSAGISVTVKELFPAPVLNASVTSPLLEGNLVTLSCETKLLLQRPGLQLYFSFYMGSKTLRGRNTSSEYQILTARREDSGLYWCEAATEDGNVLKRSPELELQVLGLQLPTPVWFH

Pertuzumab IgG3 VH4 (antibody)
kon (FcγRIIb/c): 72900 M⁻¹ s⁻¹
Kd (FcγRIIIa_(V176)): 88.7 nM

Pertuzumab IgG2 VH4 (antibody)
kon (FcγRIIa_(H167)): 360000 M⁻¹ s⁻¹
koff (FcγRIIb/c): 0.00934 s⁻¹

Pertuzumab IgG4 VH4 (antibody)
Kd (FcγRIa): 191 nM

Pertuzumab IgG4 VH5 (antibody)
Kd (FcγRIa): 151 nM

Pertuzumab IgG3 VH5 (antibody)
koff (FcγRIIa_(H167)): 0.00279 s⁻¹
Kd (FcγRIIb/c): 24.8 nM

Pertuzumab IgG3 VH1 (antibody)
Kd (FcγRIIIa_(F176)): 92.9 nM
koff (FcγRIIIa_(F176)): 0.0328 s⁻¹
kon (FcγRIIIa_(F176)): 160000 M⁻¹ s⁻¹
koff (FcγRIa): 0.000553 s⁻¹
kon (FcγRIa): 208000 M⁻¹ s⁻¹

Pertuzumab IgG2 VH3 (antibody)
kon (FcγRIIb/c): 308000 M⁻¹ s⁻¹

Pertuzumab IgG4 VH2 (antibody)
Kd (FcγRIa): 75.7 nM

Pertuzumab IgG2 VH1 (antibody)
kon (FcγRIIb/c): 176000 M⁻¹ s⁻¹

Pertuzumab IgG4 VH7 (antibody)
Kd (FcγRIa): 20.7 nM

Pertuzumab IgG4 VH6 (antibody)
Kd (FcγRIa): 7.15 nM

Pertuzumab IgG4 VH1 (antibody)
Kd (FcγRIa): 3.62 nM

Pertuzumab IgG3 VH3 (antibody)
Kd (FcγRIIa_(H167)): 5.75 nM
Kd (FcγRIIIa_(V176)): 181 nM
koff (FcγRIIIa_(V176)): 0.0178 s⁻¹
kon (FcγRIIIa_(V176)): 13500 M⁻¹ s⁻¹

Pertuzumab IgG4 VH3 (antibody)
Kd (FcγRIa): 127 nM
